Measurements reported in patent publication US20220372154A1 (APEXIGEN, published 2022).
Substitutions are numbered along the chain they refer to.

B1: humanized antibody h600_HB_11D7.1 (antibody, V domains shown)
VH: EVQLVESGGGLVQPGGSLRLSCAASGFDFSRYYMSWVRQAPGKGLEWVGYIDPIFGNTYYASWVNGRFTISSDNAKNSLYLQMNSLRAEDTAVYYCARDGDAGYDGYGYGTDLWGQGTLVTVSS
VL: DIQMTQSPSSLSASVGDRVTITCQASENIYSGLAWYQQKPGKVPKLLIVSAFTLASGVPSRFSGSGSGTDFTLTISSLQPEDVATYYCQTYYYGSVTYFNAFGGGTKVEIK
B2: humanized antibody clone 25-31 (h600_24_31) (antibody, V domains shown)
VH: EVQLVESGGGLVQPGGSLRLSCAASGFSLSSYDMSWVRQAPGKGLEWVGYIWSSGSAYYATWAEGRFTISRDNSKNTLYLQMNSLRAEDTAVYYCARRYVGSSYDTWGQGTLVTVSS
VL: DIQMTQSPSSLSASVGDRVTITCQSSQSVSSNNYLSWYQQKPGKAPKLLIYAASYLASGVPSRFSGSGSGTDFTLTISSLQPEDFATYYCLGDYDNDIDHAFGGGTKVEIK
notes: its heavy-chain CDRs are those of rab600_25_31
B3: humanized antibody h600_HB_55F6.6 (antibody, V domains shown)
VH: EVQLVESGGGLVQPGGSLRLSCAASGFSFTNNYYMCWVRQAPGKGLEWVGCIYPSIVGPTYYANWAKGRFTISRDNSKNTLYLQMNSLRAEDTAVYYCVRDRYDDYGDYFNLWGQGTLVTVSS
VL: DIQMTQSPSSLSASVGDRVTITCQASQSIYNYLSWYQQKPGKAPKRLIYYASTLASGVPSRFSGSGSGTDFTLTISSLQPEDFATYYCQSNSGVNGNRYGNAFGGGTKVEIK
notes: also called 55F6.1
B4: humanized antibody h600_24_124 (antibody, V domains shown)
VH: EVQLVESGGGLVQPGGSLRLSCAASGIDFSSYGISWVRQAPGKGLEWVAYIYPDYGSTDYATWVNGRFTISLDNSKNTLYLQMNSLRAEDTAVYYCASGYASSSGYYDPKYFGLWGQGTLVTVSS
VL: DIQMTQSPSSLSASVGDRVTITCRASEDIESYLAWYQQKPGKAPKLLIYDASDLASGVPSRFSGSGSGTDFTLTISSLQPEDFATYYCQHGFYTSRSDSVFGGGTKVEIK
B5: humanized antibody h600_25_9 (antibody, V domains shown)
VH: EVQLVESGGGLVQPGGSLRLSCAASGFSLSTYDINWVRQAPGKGLEWVGIIYTGGITNFANWAKGRFTISRDNSKNTLYLQMNSLRAEDTAVYYCARGGYDSEGYVYPDAFDPWGQGTLVTVSS
VL: DIQMTQSPSSLSASVGDRVTITCQASESISNLLAWYQQKPGKAPKLLIYRASILTSGVPSRFSGSGSGTDFTLTISSLQPEDFATYYCQHGYTGTNVQNVFGGGTKVEIK
B6: chimeric antibody clone 6 (rab600_23_6) (antibody, V domains shown)
VH: QEQLKESGGRLVTPGTPLTLTCTASGFSLSSYYVSWVRQAPGKGLEWIGIIHSDGSIYYATWAKGLFTISRTSTTVDLKATSLTTEDTATYFCVRGYPGYYTSTFNRLDLWGQGTLVTVSS
VL: AYDMTQTPASVEVAVGGTVTIKCQASQTISNELSWYQQKSGQPPKLLIYRASTLASGVPSRFSGSGSGTEFTLTISGVECDDAATYYCQQGYTTNNVDNLFGGGTEVVVK
B7: chimeric antibody clone 81 (rab600_23_81) (antibody, V domains shown)
VH: QSLEESGGRLVTPGTPLTLTCTASGFSLSNYYVSWVRQAPGKGLEWIGIIETGGNLYYASWAKGRFSLSKTSTTVDLKITSPTAEDTATYFCVRGYPGYYTHTFNRLDLWGQGTLVTVSS
VL: B6 VL with Q27E, T28S, S30A, Q38R, S63K, E70Q, N95I, V97I

What follows are binders tested against T1, human TNFR2 expressed on cells (human, UniProt P20333 23-461) (assay: cell binding on TNFR2-overexpressing (OE) cells).
T1 construct: whole, on cells; also called hTNFR2 (cell); CHO-TNFR2
T1 sequence (looked up): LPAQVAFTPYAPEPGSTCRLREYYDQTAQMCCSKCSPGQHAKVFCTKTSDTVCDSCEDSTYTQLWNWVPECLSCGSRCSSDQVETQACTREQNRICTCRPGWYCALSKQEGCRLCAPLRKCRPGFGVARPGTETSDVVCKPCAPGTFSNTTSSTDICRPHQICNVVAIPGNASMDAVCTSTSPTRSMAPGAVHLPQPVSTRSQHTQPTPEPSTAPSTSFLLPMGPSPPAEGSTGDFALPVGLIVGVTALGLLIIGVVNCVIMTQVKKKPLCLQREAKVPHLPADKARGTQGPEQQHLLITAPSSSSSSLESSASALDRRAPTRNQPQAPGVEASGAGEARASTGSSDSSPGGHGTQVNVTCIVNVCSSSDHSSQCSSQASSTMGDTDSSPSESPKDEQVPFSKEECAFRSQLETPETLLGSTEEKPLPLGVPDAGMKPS
B1 was tested, and the Kd was 201 pM. For B2, the Kd was 12100 pM. B3 gave a Kd of 539 pM. B4 was tested, and the Kd was 291 pM. In the case of B5, the Kd is reported as 387 pM.

What follows are binders tested against T2, human TNFR1-His tagged protein (human, UniProt P19438 30-211, limits assumed) (assay: ELISA on coated TNFR1-His (1 ug/mL), OD 450 nm).
T2 construct: also called soluble human TNFR1; not shown: His tag
T2 sequence (looked up): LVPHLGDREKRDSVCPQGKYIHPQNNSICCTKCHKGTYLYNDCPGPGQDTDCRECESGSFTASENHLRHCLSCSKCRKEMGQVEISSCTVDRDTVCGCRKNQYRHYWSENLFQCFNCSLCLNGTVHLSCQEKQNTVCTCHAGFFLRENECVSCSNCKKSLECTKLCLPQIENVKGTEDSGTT
Protocol: TNFR1-His tagged protein was coated on ELISA plates at 1 μg/mL at 4° C. overnight. Plates were washed, blocked, and antibodies were added at indicated concentrations for 1 hour at RT. Antibodies were washed and detected with anti-human IgG HRP for 1 hour. Assay was developed using TMB substrate for 10 minutes.
B1: binds. B2: binds.

Each binder was assayed against T1, human TNFR2 expressed on cells (assay: blocking of biotinylated TNF-α on TNFR2-CHO cells, flow cytometry).
Protocol: TNFR2-overexpressing CHO cells were plated at 100,000 cells per well. Cells were incubated with the indicated antibodies for 30 minutes on ice. […] Cells were analyzed using Cytoflex or MACSQuant flow cytometer. Assay was repeated twice.
Binder B1 has an IC50 of 322 pM. B3 gave an IC50 of 566 pM. B4 showed an IC50 of 567 pM. Binder B5 has an IC50 of 7020 pM.

Each binder was assayed against T1, human TNFR2 expressed on cells (assay: flow cytometry on CHO cells expressing human TNFR2).
Summary of the method: (§1)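 TNFR2-His ELISAs: human or cynomolgus protein coated at 1 μg/mL overnight at 4 °C, BSA-blocked, antibodies 1 h RT, anti-human HRP, TMB 3–5 min. Flow: 200,000 human TNFR2-CHO cells, antibody 1 h, anti-human IgG BV421 20 min. Blocking ELISA: TNFR-Fc coated 1 ug/mL, antibodies 1 h RT, TMB 5–7 min.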
In the case of B6, the EC50 is reported as 277 pM. B7 was tested, and the EC50 was 9440 pM.

What follows are binders tested against T3, cynomolgus TNFR2-His tagged protein (cynomolgus, UniProt A0A2K5VET2 132-366) (assay: ELISA, cynomolgus TNFR2).
T3 construct: also called Cyno TNFR2; cynomolgus TNFR2 protein; not shown: His tag
T3 sequence: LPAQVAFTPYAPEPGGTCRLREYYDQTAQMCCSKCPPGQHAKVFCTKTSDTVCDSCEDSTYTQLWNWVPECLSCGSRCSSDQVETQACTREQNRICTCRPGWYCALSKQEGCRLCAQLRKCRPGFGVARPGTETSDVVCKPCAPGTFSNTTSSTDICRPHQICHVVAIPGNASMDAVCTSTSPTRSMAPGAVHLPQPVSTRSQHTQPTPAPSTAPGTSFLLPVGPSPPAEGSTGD
B1 showed an EC50 of 54 pM. In the case of B2, the EC50 is reported as 1860 pM. Work on B3 yielded an EC50 of 109 pM. B4 gave an EC50 of 58 pM. B5 showed an EC50 of 46 pM.

These binders were tested against T4, soluble mouse TNFR2 (mouse, UniProt P25119 23-258, limits assumed) (assay: binding screen on soluble mouse TNFR2 (mouse cross-reactivity)).
T4 sequence (looked up): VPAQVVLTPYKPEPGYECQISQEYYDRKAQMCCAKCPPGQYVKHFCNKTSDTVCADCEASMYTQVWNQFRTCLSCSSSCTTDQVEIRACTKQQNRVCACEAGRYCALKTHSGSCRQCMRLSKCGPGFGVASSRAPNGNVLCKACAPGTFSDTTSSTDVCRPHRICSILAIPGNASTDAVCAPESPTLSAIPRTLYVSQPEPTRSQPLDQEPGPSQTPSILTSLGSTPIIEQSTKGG
B6: no binding. B7: no binding.

Biological target: T5, TNFR2 PLAD or CRD1 peptide (aa 17-54 of mature TNFR2) (human)
T5 construct: Range counted on mature TNFR2
T5 peptide: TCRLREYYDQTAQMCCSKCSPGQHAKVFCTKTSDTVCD
Assay: peptide-binding ELISA (potential peptide bin)
B6: binds. B7: binds.

These binders were tested against T3, cynomolgus TNFR2-His tagged protein (assay: ELISA on coated cynomolgus TNFR2-His).
Summary of the method: as §1
With B6 the EC50 was 104 pM. With B7 the EC50 was 4040 pM.

Each binder was assayed against T6, TNFR-Fc (UniProt P20333 23-257, limits assumed) (assay: TNF-α blocking ELISA on coated TNFR-Fc).
T6 construct: Printed only as TNFR-Fc; not shown: Fc part
T6 sequence (looked up): T3 sequence with G16S, P36S, Q117P, H164N, A210E, G216S, V223M
Summary of the method: as §1
B6 showed an IC50 of 5630 pM.

Each binder was assayed against T7, human TNFR2-His tagged protein (soluble) (human, UniProt P20333 23-257) (assay: ELISA, soluble human TNFR2).
T7 construct: also called hTNFR2 (soluble); soluble TNFR2-His; not shown: His tag
T7 sequence (looked up): T3 sequence with G16S, P36S, Q117P, H164N, A210E, G216S, V223M
B1 showed an EC50 of 91 pM. B2 was tested, and the EC50 was 720 pM. B3 gave an EC50 of 131 pM. In the case of B4, the EC50 is reported as 98 pM. In the case of B5, the EC50 is reported as 51 pM.

What follows are binders tested against T7, human TNFR2-His tagged protein (soluble) (assay: ELISA on coated human TNFR2-His).
Summary of the method: as §1
B6 showed an EC50 of 147 pM. B7 was tested, and the EC50 was 7390 pM.

What follows are binders tested against T6, TNFR-Fc (assay: TNF-α blocking ELISA (soluble)).
With B1 the IC50 was 2960 pM. In the case of B3, the IC50 is reported as 3810 pM. Work on B4 yielded an IC50 of 2300 pM. Work on B5 yielded an IC50 of 465 pM.

What follows are binders tested against T1, human TNFR2 expressed on cells (assay: flow cytometry, cell-expressed human TNFR2).
In the case of B1, the EC50 is reported as 239 pM. With B2 the EC50 was 12100 pM. B3 was tested, and the EC50 was 672 pM. Work on B4 yielded an EC50 of 408 pM. With B5 the EC50 was 587 pM.
